Measurements reported in US20250304662A1 (published 2025).
Where two headings read alike, the source gives them in different places.

T1: Ec FmlHLD
T1 chain: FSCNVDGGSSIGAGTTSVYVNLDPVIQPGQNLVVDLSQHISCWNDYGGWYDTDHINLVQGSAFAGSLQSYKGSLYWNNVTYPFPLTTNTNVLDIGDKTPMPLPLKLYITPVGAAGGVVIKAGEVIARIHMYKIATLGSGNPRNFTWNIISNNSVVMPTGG

T2: Kp FimHLD
T2 chain: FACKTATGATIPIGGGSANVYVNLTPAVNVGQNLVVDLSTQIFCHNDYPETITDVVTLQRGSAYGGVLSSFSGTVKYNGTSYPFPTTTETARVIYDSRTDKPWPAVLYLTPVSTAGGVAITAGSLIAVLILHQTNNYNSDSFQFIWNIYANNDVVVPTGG

T3: E. coli FimH lectin domain truncate (UT189) (E. coli (UT189))
T3 chain: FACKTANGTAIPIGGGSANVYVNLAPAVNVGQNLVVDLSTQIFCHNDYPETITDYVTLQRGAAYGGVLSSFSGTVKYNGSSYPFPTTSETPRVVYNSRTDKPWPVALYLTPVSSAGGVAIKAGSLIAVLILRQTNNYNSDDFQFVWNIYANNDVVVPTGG

T4: FimGnteH (E. coli, UniProt P08190 24-37)
T4 sequence (P08190 whole entry, looked up): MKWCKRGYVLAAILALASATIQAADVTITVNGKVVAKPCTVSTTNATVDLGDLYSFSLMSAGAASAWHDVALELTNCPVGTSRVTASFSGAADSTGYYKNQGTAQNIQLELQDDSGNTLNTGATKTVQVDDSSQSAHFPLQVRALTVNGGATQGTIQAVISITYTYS

T5: FimGNTEH (E. coli, UniProt P08190 24-37)
T5 sequence (P08190 whole entry, looked up): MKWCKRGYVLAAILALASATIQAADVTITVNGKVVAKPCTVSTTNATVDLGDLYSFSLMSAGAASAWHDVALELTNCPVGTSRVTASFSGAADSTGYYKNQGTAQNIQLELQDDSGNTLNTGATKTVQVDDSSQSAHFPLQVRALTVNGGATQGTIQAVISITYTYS


Assays:
Kp1 2E08 = test: BLI
Kp1 2H07 = test: BLI
Kp1 2E02 = test: BLI
Kp1 2D07 = test: BLI
Kp1 1B03 = test: BLI
Ec1 C12 = test: BLI
Kp1 1C01 = test: BLI
Kp1 2G02 = test: BLI
Ec1 H9 = test: BLI
Kp1 1A02 = test: BLI
Ec FmlHLD = biological target: T1, Ec FmlHLD; test: ELISA
Kp FimHLD = biological target: T2, Kp FimHLD; test: ELISA
Ec FimHLD = test: ELISA
[1] = biological target: T3, E. coli FimH lectin domain truncate …; test: BLI
[2] = biological target: T3, E. coli FimH lectin domain truncate …; test: BLI
FimGnteH [3] = biological target: T4, FimGnteH; test: BLI
FimGNTEH [4] = biological target: T5, FimGNTEH; test: BLI
[5] = biological target: T3, E. coli FimH lectin domain truncate …; test: BLI

Binder	EC50 (Ec FmlHLD) [µg/mL]	EC50 (Kp FimHLD) [µg/mL]	EC50 (Ec FimHLD) [µg/mL]	other results
FimLD (other) FACKTANGTAIPIGGGSANVYVNLAPAVNVGQNLVVDLSTQIFCHNDYPETITDYVTLQRGAAYGGVLSSFSGTVKYNGSSYPFPTTSETPRVVYNSRTDKPWPVALYLTPVSSAGGVAIKAGSLIAVLILRQTNNYNSDDFQFVWNIYANNDVVVPTGG	–	–	–	Kd (Kp1 2E08): 1 nM; Kd (Kp1 2H07): 1 nM; Kd (Kp1 2E02): 0.4 nM; Kd (Kp1 2D07): 1.5 nM; Kd (Kp1 1B03): 4.9 nM; Kd (Ec1 C12): 2.7 nM; Kd (Kp1 1C01): 3.4 nM; koff (Kp1 2G02): 1.3e-05 s⁻¹; Kd (Ec1 H9): 0.2 nM; Kd (Kp1 1A02): 0.7 nM
Kp1 2E02 (antibody, V domains shown) VH: EVQLQQSGPVLVKPGPSVKISCKASGFTFTDYYIHWVKRSHGKSLEWIGLVSPYNGGTFYNQKFKGKATLTVDTSSNTAYMELTSLTSEDSAVYYCARLGVNWYFDVWGTGTTVTVSS VL: QIVLTQSPALMAASPGEKVTLTCSVSSSISSSTLHWYQQKSETSPKPWIYGTSNLASGVPVRFSGSGSGTSYSLTISSMEAEDAATYYCQQWSTYPYTFGGGTKLEIKR	0.0097	0.0127	0.0127	–
Kp 2D10 (antibody, V domains shown) VH: EVQLQQSGAELVKPGASVKLSCKASGYTFTTYWMHWMKQWPGQGLEWIGLIHPNSGSTYYNEKFKSKATLTVDKSSSTAYMQLSSLTSEDSAVYYCARFEELWGGYWYFDVWGTGTTVTVSS VL: QIVLTQSPALMAASPGEKVTITCSVSSSISSSNLHWYQQKSETSPKPWIYGTSNLASGVPVRFSGSGSGTSYSLTISSMEAEDAATYYCQQWSSYPYTFGGGTKLEIKR	10.1	0.0109	0.0119	–
Kp1 2H04 Fab (Fab, V domains shown) VH: EVQLQQSGAELVKPGASVKLSCKASGYTFTSYWMHWVKQRPGQGLEWIGLIHPNSSSTYYNEKFKTRATLTVDKSSSTAYMQLSSLTSEDSAVYYCARLGYGNSYWYFDVWGTGTTVTVSS VL: QIVLTQSPALMAASPGEKVTITCSVSSSISSSNLHWYQQKSETSPKPWIYGTSNLASGVPIRFSGSGSGTSYSLTISSLEAEDAATYYCQQWRSYPWTFGGGTKLEIKR	–	–	–	koff [1]: 2.1e-05 s⁻¹; koff [2]: 2.1e-05 s⁻¹
Kp1 1A02 (antibody, V domains shown) VH: EVQLQQSGPVLVKPGPSMKISCKASGFTFTDYYIHWVRQSHGKSLEWIGLVSPYNGGTYYNQKFKGKATLTVDSSSSTAYMELSSLTSEDSAVYYCARLGYYGDWYYFDYWGQGTPLTVSS VL: QIVLTQSPALMATSPGEKVTITCSVSSSISSSNLNWYQQKSETSPKPWIYGTSNLASGVPVRFSGSGSGTSYSLTISSMEAEDAATYYCQQWSSYPYTFGGGTKLEIKR	2.1	0.0185	0.0144	–
Ec H9 (antibody, V domains shown) VH: EVQLQQSGPVLVKPGPSVKISCKASGFTFTDYFVHWVKQSHGKSLEWIGLVSPYNGGTYYNQQFKGKATLTVDTSSSTAYMDLNSLTSEDSAVYYCARLLRGYWYFDVWGTGTTVTVSS VL: QIVLTQSPALMAASPGEKVTITCSVSSSISSSTLHWYQQKSETSPKPWIYGTSNLASGVPVRFGGSGSGTSYSLTISSMEAEDAATYYCQQWSTYPYTFGGGTKLEIKR	0.015	0.0243	0.0301	–
Kp1 2H04 (antibody, V domains shown) VH: EVQLQQSGAELVKPGASVKLSCKASGYTFTSYWMHWVKQRPGQGLEWIGLIHPNSSSTYYNEKFKTRATLTVDKSSSTAYMQLSSLTSEDSAVYYCARLGYGNSYWYFDVWGTGTTVTVSS VL: QIVLTQSPALMAASPGEKVTITCSVSSSISSSNLHWYQQKSETSPKPWIYGTSNLASGVPIRFSGSGSGTSYSLTISSLEAEDAATYYCQQWRSYPWTFGGGTKLEIKR	0.0154	0.0096	0.0178	–
Kp 2H07 (antibody, V domains shown) VH: EVQLQQSGPVLVKPGPSVNISCKASGFTFTDYYIHWVKQSHGKSLEWIGLVYPYSGGTYYNQKFKGKATLTVDASSSTAYMELGSLTSEDSAVYYCARLGDNFYYFDYWGQGTTLTVSS VL: QIVLTQSPTLMAASPGEKVTITCSVSSSISSSNLHWYQQKSETSPKPWIYGTSNLASGVPVRFSGSGSGTSYSLTISSMEAEDAATYYCQQWRSYPYTFGGGTKLEIKR	2.72	0.0137	0.0104	–
Ec1 F7 (Fab, V domains shown) VH: EVQLQQPGPVLVKPGPSVKISCKASGFTFTDYFIHWVKQSHGKSLEWIGLVSPYNGGTYYNQQFKGKATLTVDTSSSTAYMDLNSLTSEDSAVYYCTRLLRGYWYFDVWGTGTTVTVSS VL: QIVLTQSPALMAASPGEKVTITCSVSSSIGSSNLHWYQQKSETSPKPWIYGTSNLASGVPVRFSGSGSGTSYSLTISSMEAEDAATYYCQQWSTYPYTFGGGTKLEIKR	–	–	–	Kd (FimGnteH [3]): 0.7 nM; Kd (FimGNTEH [4]): 0.7 nM
Ec1 F7 Fab (Fab, V domains shown) VH: EVQLQQPGPVLVKPGPSVKISCKASGFTFTDYFIHWVKQSHGKSLEWIGLVSPYNGGTYYNQQFKGKATLTVDTSSSTAYMDLNSLTSEDSAVYYCTRLLRGYWYFDVWGTGTTVTVSS VL: QIVLTQSPALMAASPGEKVTITCSVSSSIGSSNLHWYQQKSETSPKPWIYGTSNLASGVPVRFSGSGSGTSYSLTISSMEAEDAATYYCQQWSTYPYTFGGGTKLEIKR	–	–	–	koff [1]: 2.2e-05 s⁻¹; koff [5]: 2.2e-05 s⁻¹
Kp1 1B03 (antibody, V domains shown) VH: EVQLQQSGAELVKPGASVKLSCKASGYTFTSYWMHWVQQRPGQGLEWIGLIHPIGGGTHYNEKFKNKATLTVDKSSSTAYMQLSSLTSEDSAVYYCARLGTGPYYFDYWGQGTTLTVSS VL: QIVLTQSPALMAASPGEKVTITCSVSSSISSSTLDWYQQKSETSPKPWVYGTSNLASGVPVRFSGSGSGTSYSLTISSMEAEDAATYYCQQWSSYPWTFGGGTKLEIKR	3.06	0.0125	0.0092	–
Kp 1A09 (antibody, V domains shown) VH: EVQLQQPGAELVKPGASVKLSCKASGYTFTSYWMHWVKQRPGQGLEWIGLIHPNSGSTYYNEKFKNKATLTVDKSSSTAYMQLSSLTSEDSAVYYCARWDDSYWYFKVWGTGTTVTVSS VL: QIVLTQSPAILSASPGEKVTMTCRASSSVSYMHWYQQKPGSSPKPWIYATSNLASGVPARFSGSGSGTSYSLTISRVEAEDAATYYCQQWSSNPYTFGGGTKLEIKR	0.018	0.0161	0.0135	–
Kp 1E07 (antibody, V domains shown) VH: EVQLQQPGAELVKPGASVKLSCKASGYTFTSYWMHWVKQRPGQGLEWIGLIHPNSGSTYYNEKFKNKATLTVDKSSSTAYMQLSSLTSEDSAVYYCARWDDSYWYFKVWGTGTTVTVSS VL: QIVLTQSPAILSASPGEKVTMTCRASSSVSYMHWYQQKPGSSPKPWIYATSNLASGVPARFSGSGSGTSYSLTISRVEAEDAATYYCQQWSSNPYTFGGGTKLEIKR	0.0117	0.0115	0.0094	–
Kp2 2C07 (Fab, V domains shown) VH: EVKLVESGEGLVKPGGSLKLSCAASGFTFSSYAMSWVRQTPEKRLDWVAYISSGGDHIYYADTVKGRFTISRDNARNTLYLQMSSLKSEDTAMYYCTRDTGYYVSRYFDVWGTGTTVTVSS VL: DIVMTQSQKFMSTSVGDRVSVTCKASQNVVTNVAWYQQKSGQSPKVVIYSASFRSSGVPDRFTGSGSGTDFTLTISNVQSEDLAEYFCHQYNSHPLTFGGGTKLEIKR	–	–	–	Kd (FimGnteH [3]): 9.9 nM; Kd (FimGNTEH [4]): 9.9 nM
